Assay results reported in patent US6187552A, “Method for identifying inhibitors of JAK2/cytokine receptor binding” (Pharmacia & Upjohn Company, priority 1998, dated 2001).

Assays:
JAK2 = JAK2 (Homo sapiens, UniProt O60674); experiment: SPA competition: soluble peptide/streptavidin against peptide 4-coated SPA beads for binding 3H-JAK2; set-up: Y918N clone error corrected to Tyr
From the text: FIGS. 20 A and B illustrate a test of the ability of streptavidin-peptide 4 complexes to compete for binding of 3H-JAK2 to peptide 4-coated SPA beads. For A, #0 is a beads only control. In all reactions with peptide bound to beads, excess peptide 4 [SEQ ID NO:14] was bound to beads before adding soluble samples. The reaction in #1 is peptide 4 [SEQ ID NO:14] bound to beads only, no added peptide 4 [SEQ ID NO:14] or streptavidin. #2 contained soluble peptide 4/streptavidin at a ratio of 1:1. #3 contained soluble peptide 4/streptavidin at a ratio of 4:1. #4 contained 20 μM peptide 4 added as soluble peptide 4. #5 contained 20 μM streptavidin. […] For B, 0 is a beads only control. In all reactions with peptide bound to beads, excess peptide 4 was bound to beads in the presence of 1 mg/ml κ-casein (as described in Materials and Methods of Example 8) before adding soluble samples. The reaction in #1 is peptide 4 bound to beads only, no added peptide 4 or streptavidin. #2 contained peptide 1/streptavidin at a ratio of 4:1 and #3 contained peptide 4/streptavidin at a ratio of 4:1.
The assay was set up in 96-well plates (Wallac, catalog # 1450-401), Turku, Finland, using a total assay volume of 200, μl/well. Triplicate reactions were done for each data point. The buffer used in all the assays was 35 mM sodium phosphate, 150 mM NaCl, pH 8.0, 10% glycerol. Biotinylated peptides were allowed to bind to streptavidin-coated SPA beads (Amersham Life Sciences, Arlington Heights, Ill., catalog # RPNQ0006) with either less than saturating peptide or excess peptide. For 400 μg SPA beads used per reaction, there was the capacity to bind 49 pmole of biotin (given the binding capacity of 121 pmole biotin/mg bead). Under less than saturating conditions, beads and 40 pmole peptide were added to the assay plate well and incubated for one hour with gentle shaking on a Titer plate shaker (Lab-Line Instruments, Inc., Melrose Park, Ill.) at 600 rpm and not washed. Under conditions of excess peptide, beads and peptide (80 pmole of peptide per 400 μg of bead) were mixed in batch with or without 1 mg/ml K-casein added as described in Results and Discussion, incubated for one hour with rotation, washed three times with buffer and aliquotted into wells. ^3 H-JAK2 or ^3 H-NJAK2 and any other components to be tested were added and the reactions were mixed and incubated for one hour in the dark at room temperature. The plates were then read on a MicroBeta (Wallac) set to read scintillation due to tritium.
The ability of excess peptide 4 [SEQ ID NO: 14] to compete for binding of JAK2 was tested. Biotinylated peptide 4 was bound to streptavidin in solution to mimic the conditions of the peptide 4 bound to the beads. It was used at a ratio of 1:1 (peptide 4: streptavidin) and at a ratio of 4:1 to see whether having multiple peptides on one streptavidin molecule might do a better job of binding JAK2 and therefore of competing. […] This could be due to the free streptavidin pulling some of the peptide 4 [SEQ ID NO: 14] off the bead. […] Another SPA was done using peptide 4 [SEQ ID NO:14] or peptide 1 [SEQ ID NO:11] bound to streptavidin at a ratio of 4:1. […] The results are shown in panel B of FIG. 20.

[1] = target: NJAK2 (N-terminal portion of JAK2) (Homo sapiens, UniProt O60674); experiment: SPA: binding of 3H-NJAK2 (N-terminal JAK2) to βc peptides on streptavidin-coated beads; settings: less than saturating peptide, 40 pmole per reaction, FIG. 12B
Sequence of NJAK2 (N-terminal portion of JAK2) (O60674 1-294 S277G): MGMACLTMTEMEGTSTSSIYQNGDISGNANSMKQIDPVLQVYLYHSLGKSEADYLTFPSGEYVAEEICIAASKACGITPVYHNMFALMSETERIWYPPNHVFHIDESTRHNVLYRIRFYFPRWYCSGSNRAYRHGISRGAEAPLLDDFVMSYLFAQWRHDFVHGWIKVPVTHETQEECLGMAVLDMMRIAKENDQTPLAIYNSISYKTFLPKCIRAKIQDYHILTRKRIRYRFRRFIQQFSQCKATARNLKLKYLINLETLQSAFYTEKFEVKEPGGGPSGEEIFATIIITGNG
Description: Three different labeling reactions were done using ^3 H-N-succinimidyl propionate (^3 H-NSP, Amersham Life Sciences, Arlington Heights, Ill.). One reaction was done using 0.5 mg of purified JAK2 in 0.1 M borate buffer, pH 8.5, with a reaction volume of 150 μl and an incubation time of one hour on ice with dried 1 mCi of ^3 H-NSP (toluene was removed using a stream of nitrogen). […] Another reaction was done using the buffer 0.1 M sodium phosphate, pH 8.0, and a similar volume as before. One milligram of JAK2 in 1.2 ml of phosphate buffer was incubated for three hours on ice. […] A third reaction was done using 2.5 mg of purified JAK2 in 0.1 m sodium phosphate, pH 8.0, and 2.5 ml volume. It was incubated with 5 mCi of dried ^3 H-NSP on ice for 2 hours. […] All three products were separated from unincorporated label using PD-10 columns (Pharmacia Biotech, Uppsala, Sweden) pre-equilibrated with 20 mM Tris, pH 8.0, 0.15 M NaCl.
Triplicate reactions were done for each data point. The buffer used in all the assays was 35 mM sodium phosphate, 150 mM NaCl, pH 8.0, 10% glycerol. Biotinylated peptides were allowed to bind to streptavidin-coated SPA beads (Amersham Life Sciences, Arlington Heights, Ill., catalog # RPNQ0006) with either less than saturating peptide or excess peptide. […] Under less than saturating conditions, beads and 40 pmole peptide were added to the assay plate well and incubated for one hour with gentle shaking on a Titer plate shaker (Lab-Line Instruments, Inc., Melrose Park, Ill.) at 600 rpm and not washed. […] The plates were then read on a MicroBeta (Wallac) set to read scintillation due to tritium.
Either ^3 H-JAK2 or ^3 H-NJAK2 was added to the wells and, after incubation, the signals measured. […] A competition reaction was also done by adding 5 to 10-fold excess unlabeled JAK2 in those reactions.

Sequence of JAK2 (O60674 3-1132): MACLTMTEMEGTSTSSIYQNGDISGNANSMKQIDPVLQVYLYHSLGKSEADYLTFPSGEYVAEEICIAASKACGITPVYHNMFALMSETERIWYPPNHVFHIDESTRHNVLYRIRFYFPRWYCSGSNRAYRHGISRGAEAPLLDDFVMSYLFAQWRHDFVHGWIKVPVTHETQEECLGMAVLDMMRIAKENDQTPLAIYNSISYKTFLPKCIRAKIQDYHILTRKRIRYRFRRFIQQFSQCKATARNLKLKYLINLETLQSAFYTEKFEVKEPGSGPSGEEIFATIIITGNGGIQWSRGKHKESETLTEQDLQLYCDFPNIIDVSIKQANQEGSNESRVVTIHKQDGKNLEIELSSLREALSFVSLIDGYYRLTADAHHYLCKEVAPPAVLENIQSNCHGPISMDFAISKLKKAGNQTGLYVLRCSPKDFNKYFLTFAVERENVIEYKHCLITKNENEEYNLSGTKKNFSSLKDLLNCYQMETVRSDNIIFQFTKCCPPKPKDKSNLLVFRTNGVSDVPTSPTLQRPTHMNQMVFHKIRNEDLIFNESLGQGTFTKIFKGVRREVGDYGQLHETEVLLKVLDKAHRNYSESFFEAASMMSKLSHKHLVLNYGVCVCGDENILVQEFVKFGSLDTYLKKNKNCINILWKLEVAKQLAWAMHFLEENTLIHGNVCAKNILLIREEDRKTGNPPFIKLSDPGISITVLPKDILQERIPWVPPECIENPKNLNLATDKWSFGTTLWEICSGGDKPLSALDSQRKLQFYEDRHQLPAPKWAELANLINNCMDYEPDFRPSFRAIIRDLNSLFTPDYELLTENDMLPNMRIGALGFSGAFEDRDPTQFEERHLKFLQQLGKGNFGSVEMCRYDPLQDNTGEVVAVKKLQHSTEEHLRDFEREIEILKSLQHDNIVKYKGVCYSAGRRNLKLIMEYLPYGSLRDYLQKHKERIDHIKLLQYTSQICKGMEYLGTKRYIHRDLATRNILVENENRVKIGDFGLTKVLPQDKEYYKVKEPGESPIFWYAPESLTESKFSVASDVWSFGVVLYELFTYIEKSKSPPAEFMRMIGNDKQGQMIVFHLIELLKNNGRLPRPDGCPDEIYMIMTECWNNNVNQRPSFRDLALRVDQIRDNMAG

For “GIYGYRLRRKWEEKIPNPSKSHLFQNGSAELWP [peptide 4, βc peptide, N-terminal truncation]”, the “binding of JAK2 by peptide in solution” value (JAK2; conclusion from FIG. 20) was “binds JAK2 very poorly”, the “competition by peptide in solution, bound to streptavidin or not” value (JAK2; conclusion from FIG. 20A) was “competes poorly” and the “competition for binding of JAK2” value (JAK2; peptide/streptavidin 4:1, beads with 1 mg/ml κ-casein, FIG. 20B) was “does compete for binding JAK2 but very weakly”. For the same sequence, the “competition for binding of JAK2” value (JAK2; soluble peptide 4/streptavidin 1:1 and 4:1, no κ-casein, FIG. 20A) was “only minimal, if any, competition was seen” and the “activity profile in binding 3H-NJAK2 (signal)” value [1] was “peptide 4>peptide 3>peptide 5>peptide 6>peptides 1 and 2”.
